The values that follow are results of earlier work, collected in article PMC13042399.

pKd: −log10 of the molar value.

The target of the data set is IGF2 (Homo sapiens) (UniProt P01344).
IGF2 (Homo sapiens), sequence (P01344 25-91): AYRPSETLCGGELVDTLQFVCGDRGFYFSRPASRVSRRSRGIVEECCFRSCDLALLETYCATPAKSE

In general, pKd refers to the Kd on a negative log10 scale, so that one unit is a factor of ten. Turning to IGF2R (from UniProt P11717), the pKd was 7.40.
